Biological target: SARS-CoV-2 wild-type (WT) spike protein trimer (SARS-CoV-2) (UniProt P0DTC2)
Test: SPR

Substance “LCB1 mini-binder protein (designed binder)” has a Kd of 1.22 nM.

Reference: paper doi:10.1101/2023.09.18.558353
